According to patent US20110065645A1, “Compositions and Methods for Modulating Neuron Degeneration and Neuron Guidance” (The Regents of the University of California, priority 2009, published 2011):
Entries after “also recorded” stand apart in the source; their conditions may differ.

Assays:
[1] = target: Fzd3-EGFP (mouse) (UniProt Q61086); experiment: cell-based or functional assay
[2] = test system: PKA; experiment: Western blot of activated phospho-PKA (Thr197) in dissociated commissural neurons; type: cell-based, rat; conditions: Shh-N 2.5 μg/ml for one hour; KT5720 25 μM for 15 minutes
Method: To confirm that PKA activity can be reduced in commissural neurons exposed to Shh, we treated dissociated spinal cord commissural neurons with Shh and analyzed the level of activated PKA. 24 hr after plating, commissural neurons were serum starved overnight and then treated with 2.5 μg/ml (150 nM) of Shh-N recombinant protein (R&D) for one hour prior to lysate collection. Forskolin (25 μM), and the PKA inhibitor, KT5720 (25 μM) were added to the commissural neuron culture as controls for 15 minutes before lysis. We then tested these lysates for levels of activated PKA with an antibody that specifically recognizes an activated form of the catalytic domain of PKA (phosphorylated at Thr197).
Dissociated commissural neuronal culture. Spinal cords were isolated from rat E13 embryos and commissural neurons were dissociated as previously described.^(8) In brief, embryos were treated with Dispase I (0.25 mg/ml; D4818, Sigma) for 5 minutes prior isolation of spinal cords, followed by collection of spinal cord dorsal domains by microdissection and incubation with Trypsin (1 mg/ml; T47-99, Sigma) for 10-12 min in a 37° C. water bath. The tissue was then triturated with flamed glass pipettes and a single cell suspension was plated on poly-D-lysine (PDL; 20 μg/ml) and laminin (10 μg/ml) coated coverslips or 12 well plates (Corning). More than 90% cells in these cultures express TAG-1, a marker for spinal cord commissural neurons (FIG. 35B). 10^5 dissociated cells were plated on PDL/laminin coated coverslips and cultured for 24 hrs before processed for immunohistochemistry as described above. For Western blot analysis, 10^6 dissociated cells were plated on PDL/laminin coated 12-well tissue culture plates and cultured initially for 24 hrs in dorsal explant media (replenished daily) then changed to low serum medium overnight prior to treatments. […]

[3] = target: Fzd3-mCherry (mouse) (UniProt Q61086); experiment: cell-based or functional assay
Sequence of Fzd3-mCherry (mouse) (Q61086 23-666): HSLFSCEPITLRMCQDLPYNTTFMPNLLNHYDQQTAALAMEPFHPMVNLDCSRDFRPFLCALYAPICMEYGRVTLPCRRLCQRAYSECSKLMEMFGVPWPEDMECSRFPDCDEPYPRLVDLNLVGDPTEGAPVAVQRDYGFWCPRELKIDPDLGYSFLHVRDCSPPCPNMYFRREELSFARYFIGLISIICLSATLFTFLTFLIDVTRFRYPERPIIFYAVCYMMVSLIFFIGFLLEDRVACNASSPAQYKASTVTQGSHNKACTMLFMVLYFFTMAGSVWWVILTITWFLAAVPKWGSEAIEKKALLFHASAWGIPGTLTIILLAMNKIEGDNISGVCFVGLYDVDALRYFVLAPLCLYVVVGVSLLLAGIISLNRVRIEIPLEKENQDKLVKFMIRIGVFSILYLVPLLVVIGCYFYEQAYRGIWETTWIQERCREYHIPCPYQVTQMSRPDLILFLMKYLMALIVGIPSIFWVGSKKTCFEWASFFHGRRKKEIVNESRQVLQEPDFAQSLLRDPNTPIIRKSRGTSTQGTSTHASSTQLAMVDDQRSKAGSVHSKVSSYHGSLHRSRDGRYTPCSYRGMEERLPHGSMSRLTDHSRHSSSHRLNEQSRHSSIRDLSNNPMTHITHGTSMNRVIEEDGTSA

[4] = test system: pre-crossing commissural axons; experiment: Precrossing commissural explant assay in collagen gel; type: cell-based, rat; conditions: collagen gel containing Netrin-1 and Shh expressing COS-7 cells
Excerpt: Shh activates Semaphorin repulsion in commissural axons. We investigated the mechanisms by which Semaphorin repulsion in commissural axons is switched on during spinal cord midline pathfinding. Commissural neuron cell bodies are located in the dorsal spinal cord and initially extend axons to the ventral midline, the floor plate, in the process of several days (from late E8.9/early E9.5 in mouse and late E10 and E11 in rats till at least E12.5 in mouse and E14 in rat). The commissural axons in the rostral (anterior) spinal cord differentiate and their axons develop earlier than their caudal (posterior) counterparts. At each axis level, the more dorsal populations tend to differentiate and extend axons later than the ventral population in the dorsal spinal cord during this stage of development. […] To quantify these effects, the total length of axons extending towards (proximal) or away (distal) from cell aggregates (FIG. 31B) was calculated in each experiment as the ratio of axons growing proximally (P) divided by axons growing distally (D) (FIG. 31i). […]
Precrossing commissural explant assay. […] For quantification the total length of axon bundle was measured in the proximal (P) and distal (D) quadrants as depicted in FIG. 31B. […]

[5] = test system: TH axons; experiment: mdDA explant assay with Wnt-expressing cell clumps, anti-TH staining; type: cell-based; conditions: embryonic mdDA explants from ventral midbrain
Excerpt: FIG. 7. Multiple Wnts attract TH axons in explant assays. FIG. 7 depicts histogram showing that embryonic mdDA explants dissected out from the ventral midbrain and cultured with cell clumps expressing various Wnts.
3c: Use of explant assays to test the effects of Wnts on mdDA and 5-HT axon growth and guidance. To directly address whether Wnts regulate the guidance of these monoaminergic axons, we use explant assays to test the function of the identified Wnts and determine whether they are attractive or repulsive. […] We plan to continue test additional Wnts especially those which are expressed in the brainstem and the forebrain targets using the same assay.

[6] = test system: β-catenin; experiment: β-catenin immunostaining in commissural axon growth cones; type: cell-based; conditions: bath application; LiCl 2 mM
Excerpt: To understand how atypical PKC/Par pathway regulates axon guidance, we set out to determine the subcellular localization of aPKC, their substrates and downstream cellular effectors. […] Thus, our high-resolution confocal imaging detects a tendency of β-catenin being concentrated to one side of the growth cone (FIG. 9A). It is possible that there is low level of Wnt proteins in the culture (many neurons express Wnts). […] Therefore, it is also possible that intrinsic aPKC signaling can create chirality within the growth cone with out extrinsic signals. Such intrinsic polarity may then robustly regulate cellular morphology upon directional instructions from the environment such as a Wnt gradient. It is well known that GSK3β phosphorylates β-catenin, which then leads to proteosome-mediated degradation of β-catenin. And it is also known that GSK3β is phosphorylated and inhibited by PKCζ^(1,2). Therefore, inhibiting GSK3β or the proteosome activity generally should increase β-catenin level throughout the growth cone, canceling the asymmetry. […] We are now testing the hypothesis that Wnt proteins may locally activate PKCζ, which then inhibits GSK3β and locally stabilizes β-catenin, which is part of the asymmetric cellular mechanism leading to directional choice of a growth cone. We examine the localization of β-catenin in post-crossing commissural axon growth cones in the “post-crossing” assay and “open-book” assays.

Sequence of Fzd3-EGFP (mouse) (Q61086 23-666): as above

| Molecule | level of activated PKA [2] | attraction of TH axons [5] | also measured |
| --- | --- | --- | --- |
| recombinant Wnt5a (R&D Systems) (ligand) | – | – | commissural axon length after 24 hours on Wnt5a-coated coverslips [1]: 36% |
| c1ccc2c(Oc3nc(Nc4ccc(N5CCOCC5)cc4)c4ncn(C5CCCCC5)c4n3)cccc2c1 [Purmorphamine, reference compound] | reduce the level of activated PKA | – | – |
| Dvl1-EGFP (from UniProt P51141 1-695) | – | – | Fzd3 level at the cell membrane (surface biotinylation, avidin IP, anti-mCherry IB) in HEK293T cells [3]: 3 fold |
| Shh-N: recombinant mouse Sonic Hedgehog, amino-terminal peptide (R&D); also secreted by transfected COS-7 cells | reduce the level of activated PKA; also recorded: significant reduction of activated PKA | – | response of pre-crossing commissural axons to Semaphorins [4]: repelled by Sema3B- and Sema3F-secreting cell clumps |
| Wnt7b: Wnt family protein expressed by cell clumps in the TH axon explant assay (protein, UniProt P56706 25-349, looked up) Protein Wnt-7b: ALSSVVALGANIICNKIPGLAPRQRAICQSRPDAIIVIGEGAQMGINECQYQFRFGRWNCSALGEKTVFGQELRVGSREAAFTYAITAAGVAHAVTAACSQGNLSNCGCDREKQGYYNQAEGWKWGGCSADVRYGIDFSRRFVDAREIKKNARRLMNLHNNEAGRKVLEDRMQLECKCHGVSGSCTTKTCWTTLPKFREVGHLLKEKYNAAVQVEVVRASRLRQPTFLRIKQLRSYQKPMETDLVYIEKSPNYCEEDAATGSVGTQGRLCNRTSPGADGCDTMCCGRGYNTHQYTKVWQCNCKFHWCCFVKCNTCSERTEVFTCK | – | attracts the TH-positive neuron axons | – |
| Wnt3a: purified Wnt3a protein; also expressed by cell clumps in explant assays (protein, UniProt P56704 19-352, looked up) Protein Wnt-3a: SYPIWWSLAVGPQYSSLGSQPILCASIPGLVPKQLRFCRNYVEIMPSVAEGIKIGIQECQHQFRGRRWNCTTVHDSLAIFGPVLDKATRESAFVHAIASAGVAFAVTRSCAEGTAAICGCSSRHQGSPGKGWKWGGCSEDIEFGGMVSREFADARENRPDARSAMNRHNNEAGRQAIASHMHLKCKCHGLSGSCEVKTCWWSQPDFRAIGDFLKDKYDSASEMVVEKHRESRGWVETLRPRYTYFKVPTERDLVYYEASPNFCEPNPETGSFGTRDRTCNVSSHGIDGCDLLCCGRGHNARAERRREKCRCVFHWCCYVSCQECTRVYDVHTCK | – | strongest effect | β-catenin level and asymmetry in the growth cone [6]: increased the levels of β-catenin throughout the growth cone |
